Molecular target: the molecule itself
Assay: SEC; native size exclusion chromatography, Sephacryl S-100-HR, buffer B (50 mM Tris pH 8, 0.1 M NaCl, 0.5 M KCl, 20% glycerol, 20 mM Na-cholate, 0.1 mM TCEP) as eluent; monomer separated from higher molecular weight forms

| Protein | binding result |
| --- | --- |
| His-FeCh, recombinant type II ferrochelatase of Synechocystis sp. PCC 6803 with N-terminal His6-tag (enzyme, UniProt P54225 1-387, looked up, Ferrochelatase (hemH) of Synechocystis sp; PCC 6803, GenBank BAA10523.1, amplified from genomic DNA from the start codon to the stop codon; full length with the C-terminal CAB domain; tagged protein 47 kDa; also called full length His-FeCh; not shown: His6, N-terminal, kept) MGRVGVLLLNLGGPEKLEDVRPFLFNLFADPEIIRLPFPWLQKPLAWLISTLRAKKSQANYAEIGGGSPLLQITEAQASALTTRLERLGQDAKVYIGMRYWHPFTEEAVEKIKGDRLQRLVILPLYPHFSISTSGSSFRVLEEMWHNDPSLRQLDYSLIPSWYDHPGYLQAMADLIAQELKKFPNPDQAHIFFSAHGVPQSYVDEAGDPYQAEIEACTRLIMRTLDRPNQYTLAYQSRVGPVEWLKPYTEEALQKLGAEGIDDLLVVPISFVSEHIETLQEIDIEYREIAEEAGIDNFQRVPALNTHPVFIDALAQMVMDSLNDPPCTFETVPHPKKNMKMYPQERWEWGLTTAAEVWNGRLAMLGFIALLVELISGQGPLHFVGLL | binds |
| FeCh, recombinant full-length ferrochelatase of Synechocystis sp. PCC 6803 after removal of the N-terminal His6-tag (enzyme, UniProt P54225 1-387, looked up, Ferrochelatase (hemH) of Synechocystis sp; PCC 6803, GenBank BAA10523.1, full length with the C-terminal CAB domain; monomer 44 kDa; also called full-length FeCh; source: E. coli, His-FeCh after IMAC, His6-tag removed with thrombin, purified (HisGraviTrap, Sephacryl S-100-HR); not shown: His6, N-terminal, cleaved) MGRVGVLLLNLGGPEKLEDVRPFLFNLFADPEIIRLPFPWLQKPLAWLISTLRAKKSQANYAEIGGGSPLLQITEAQASALTTRLERLGQDAKVYIGMRYWHPFTEEAVEKIKGDRLQRLVILPLYPHFSISTSGSSFRVLEEMWHNDPSLRQLDYSLIPSWYDHPGYLQAMADLIAQELKKFPNPDQAHIFFSAHGVPQSYVDEAGDPYQAEIEACTRLIMRTLDRPNQYTLAYQSRVGPVEWLKPYTEEALQKLGAEGIDDLLVVPISFVSEHIETLQEIDIEYREIAEEAGIDNFQRVPALNTHPVFIDALAQMVMDSLNDPPCTFETVPHPKKNMKMYPQERWEWGLTTAAEVWNGRLAMLGFIALLVELISGQGPLHFVGLL | binds |
